Data as given in article PMC9482650, “Quantitative fragmentomics allow affinity mapping of interactomes” (Nature Communications, 2022).

T1: APBA1_1, Q02410
T1 sequence (Q02410 651-752, limits assumed, looked up): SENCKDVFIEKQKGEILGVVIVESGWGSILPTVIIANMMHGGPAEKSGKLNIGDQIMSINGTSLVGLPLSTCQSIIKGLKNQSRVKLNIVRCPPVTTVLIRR

T2: MPDZ_5, O75970
T2 sequence (O75970 695-796, limits assumed, looked up): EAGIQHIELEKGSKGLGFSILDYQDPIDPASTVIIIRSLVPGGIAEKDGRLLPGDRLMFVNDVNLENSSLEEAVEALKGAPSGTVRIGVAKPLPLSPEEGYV

T3: LNX2_3, Q8N448
T3 sequence (Q8N448 463-564, limits assumed, looked up): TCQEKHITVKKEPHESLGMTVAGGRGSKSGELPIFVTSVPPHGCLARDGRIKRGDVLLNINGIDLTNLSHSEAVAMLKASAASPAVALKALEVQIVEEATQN

T4: PTPN13_1, Q12923
T4 sequence (Q12923 1088-1188, limits assumed, looked up): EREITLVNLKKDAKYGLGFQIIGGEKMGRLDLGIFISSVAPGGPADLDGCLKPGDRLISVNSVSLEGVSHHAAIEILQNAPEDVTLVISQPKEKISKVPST

T5: RHPN1, Q8TCX5
T5 sequence (Q8TCX5 508-602, limits assumed, looked up): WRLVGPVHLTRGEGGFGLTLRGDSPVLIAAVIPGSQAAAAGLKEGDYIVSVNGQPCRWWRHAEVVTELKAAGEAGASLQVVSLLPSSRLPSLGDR

T6: PDZD2_2, O15018
T6 sequence (O15018 329-429, limits assumed, looked up): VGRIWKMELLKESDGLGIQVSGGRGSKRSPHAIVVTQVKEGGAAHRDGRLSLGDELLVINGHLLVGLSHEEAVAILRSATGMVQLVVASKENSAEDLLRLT

T7: TIAM2, Q8IVF5
T7 sequence (Q8IVF5 885-986, limits assumed, looked up): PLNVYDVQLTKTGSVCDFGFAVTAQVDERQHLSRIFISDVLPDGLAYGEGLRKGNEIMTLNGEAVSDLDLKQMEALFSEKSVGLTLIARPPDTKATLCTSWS

T8: MPDZ_12, O75970
T8 sequence (O75970 1857-1958, limits assumed, looked up): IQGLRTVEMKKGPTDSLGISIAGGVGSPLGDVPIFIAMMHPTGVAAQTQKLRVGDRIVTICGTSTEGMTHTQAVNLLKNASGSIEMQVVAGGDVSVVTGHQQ

T9: GRIP1_2, Q9Y3R0
T9 sequence (Q9Y3R0 145-248, limits assumed, looked up): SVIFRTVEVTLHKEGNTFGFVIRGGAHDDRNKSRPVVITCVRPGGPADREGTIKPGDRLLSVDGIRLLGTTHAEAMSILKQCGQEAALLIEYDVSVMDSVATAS

T10: RAPGEF6, Q8TEU7
T10 sequence (Q8TEU7 525-625, limits assumed, looked up): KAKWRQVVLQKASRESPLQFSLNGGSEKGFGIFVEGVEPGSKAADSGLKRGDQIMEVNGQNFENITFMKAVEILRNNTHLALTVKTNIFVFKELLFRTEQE


Key:
Experiment in all cases: holdup assay
Design in all cases: key: below the threshold = too weak to quantify, mostly under pKd 3.1 to 4
Conditions in all cases: plain residues with an end cap or a label only (N-terminal biotin on a linker: ado-ado)
GRIP2_7, Q9C0E4 = molecular target: GRIP2_7, Q9C0E4
HTRA2, O43464 = molecular target: HTRA2, O43464
FRMPD3, Q5JV73 = molecular target: FRMPD3, Q5JV73
Inadl_1, Q8NI35 = molecular target: Inadl_1, Q8NI35
MAGI2_2, Q86UL8 = molecular target: MAGI2_2, Q86UL8
APBA1_1, Q02410 = molecular target: T1, APBA1_1, Q02410
MPDZ_5, O75970 = molecular target: T2, MPDZ_5, O75970
LNX2_3, Q8N448 = molecular target: T3, LNX2_3, Q8N448
GRIP2_3, Q9C0E4 = molecular target: GRIP2_3, Q9C0E4
PTPN13_1, Q12923 = molecular target: T4, PTPN13_1, Q12923
LAP2, Q96RT1 = molecular target: LAP2, Q96RT1
DLG4_1, P78352 = molecular target: DLG4_1, P78352
PARD3_3, Q8TEW0 = molecular target: PARD3_3, Q8TEW0
DLG2_3, Q15700 = molecular target: DLG2_3, Q15700
RHPN1, Q8TCX5 = molecular target: T5, RHPN1, Q8TCX5
PDZD2_2, O15018 = molecular target: T6, PDZD2_2, O15018
MAST2, Q6P0Q8 = molecular target: MAST2, Q6P0Q8
NHERF4_1, Q86UT5-2 = molecular target: NHERF4_1, Q86UT5-2
TIAM2, Q8IVF5 = molecular target: T7, TIAM2, Q8IVF5
MPDZ_12, O75970 = molecular target: T8, MPDZ_12, O75970
GRIP1_2, Q9Y3R0 = molecular target: T9, GRIP1_2, Q9Y3R0
DLG4_3, P78352 = molecular target: DLG4_3, P78352
SNX27, Q96L92 = molecular target: SNX27, Q96L92
RAPGEF6, Q8TEU7 = molecular target: T10, RAPGEF6, Q8TEU7
DLG1_1, Q12959 = molecular target: DLG1_1, Q12959
LNX1_2, Q8TBB1 = molecular target: LNX1_2, Q8TBB1
FRMPD2_1, Q68DX3 = molecular target: FRMPD2_1, Q68DX3
NOS1, P29475 = molecular target: NOS1, P29475
Sequence of NOS1, P29475 (P29475 9-101): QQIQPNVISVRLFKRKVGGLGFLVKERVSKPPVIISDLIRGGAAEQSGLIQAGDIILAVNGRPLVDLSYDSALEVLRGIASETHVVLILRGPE

Sequence of LAP2, Q96RT1 (Q96RT1 other isoform, or with tags, fused parts or gaps): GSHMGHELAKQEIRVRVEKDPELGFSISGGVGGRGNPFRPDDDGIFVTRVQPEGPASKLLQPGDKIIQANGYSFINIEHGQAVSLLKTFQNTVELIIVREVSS
Sequence of LNX1_2, Q8TBB1 (Q8TBB1 371-470): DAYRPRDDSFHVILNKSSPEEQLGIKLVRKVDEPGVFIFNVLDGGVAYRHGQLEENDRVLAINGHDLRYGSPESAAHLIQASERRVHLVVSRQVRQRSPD
Sequence of GRIP2_3, Q9C0E4 (Q9C0E4 238-339): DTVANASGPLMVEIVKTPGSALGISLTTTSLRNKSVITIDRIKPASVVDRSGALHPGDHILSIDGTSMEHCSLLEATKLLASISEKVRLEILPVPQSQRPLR
Sequence of DLG4_3, P78352 (P78352 306-403): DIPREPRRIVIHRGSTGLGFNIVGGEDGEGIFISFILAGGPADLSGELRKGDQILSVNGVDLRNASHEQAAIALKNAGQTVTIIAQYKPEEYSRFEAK
Sequence of HTRA2, O43464 (O43464 355-458): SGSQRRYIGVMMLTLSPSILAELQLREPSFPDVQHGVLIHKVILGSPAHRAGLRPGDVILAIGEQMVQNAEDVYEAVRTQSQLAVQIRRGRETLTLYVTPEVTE
Sequence of Inadl_1, Q8NI35 (Q8NI35 113-229): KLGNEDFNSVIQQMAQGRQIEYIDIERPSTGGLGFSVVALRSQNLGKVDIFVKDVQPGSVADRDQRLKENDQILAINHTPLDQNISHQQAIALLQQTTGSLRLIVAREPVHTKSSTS
Sequence of PARD3_3, Q8TEW0 (Q8TEW0 582-685): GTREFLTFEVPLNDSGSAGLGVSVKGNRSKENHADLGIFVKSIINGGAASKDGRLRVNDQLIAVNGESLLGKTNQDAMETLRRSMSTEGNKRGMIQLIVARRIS
Sequence of MAST2, Q6P0Q8 (Q6P0Q8 1099-1202): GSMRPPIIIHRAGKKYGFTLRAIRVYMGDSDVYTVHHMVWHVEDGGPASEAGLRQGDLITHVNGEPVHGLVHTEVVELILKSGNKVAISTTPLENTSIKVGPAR
Sequence of FRMPD2_1, Q68DX3 (Q68DX3 770-861): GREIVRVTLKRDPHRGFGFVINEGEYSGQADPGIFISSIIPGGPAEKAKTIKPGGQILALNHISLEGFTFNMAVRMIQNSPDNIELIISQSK
Sequence of NHERF4_1, Q86UT5-2 (Q86UT5 other isoform, or with tags, fused parts or gaps): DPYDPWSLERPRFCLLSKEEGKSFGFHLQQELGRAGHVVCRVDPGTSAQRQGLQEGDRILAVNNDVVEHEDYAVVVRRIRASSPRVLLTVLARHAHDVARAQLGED
Sequence of FRMPD3, Q5JV73 (Q5JV73 12-100): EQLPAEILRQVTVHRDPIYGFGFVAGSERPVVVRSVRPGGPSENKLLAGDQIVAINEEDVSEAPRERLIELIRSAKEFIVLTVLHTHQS
Sequence of MAGI2_2, Q86UL8 (Q86UL8 410-522): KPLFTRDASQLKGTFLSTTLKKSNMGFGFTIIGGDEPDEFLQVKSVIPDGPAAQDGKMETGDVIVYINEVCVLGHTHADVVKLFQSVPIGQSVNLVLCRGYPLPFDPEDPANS
Sequence of DLG4_1, P78352 (P78352 62-152): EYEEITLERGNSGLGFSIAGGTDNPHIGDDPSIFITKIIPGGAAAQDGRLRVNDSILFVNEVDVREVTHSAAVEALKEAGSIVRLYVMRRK
Sequence of GRIP2_7, Q9C0E4 (Q9C0E4 934-1023): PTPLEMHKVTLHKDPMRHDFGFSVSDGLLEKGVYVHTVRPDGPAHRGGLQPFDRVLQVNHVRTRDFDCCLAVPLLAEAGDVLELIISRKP

pKd (GRIP2_7, Q9C0E4) | pKd (HTRA2, O43464) | pKd (FRMPD3, Q5JV73) | pKd (Inadl_1, Q8NI35) | pKd (MAGI2_2, Q86UL8) | pKd (APBA1_1, Q02410) | pKd (MPDZ_5, O75970) | pKd (LNX2_3, Q8N448) | pKd (GRIP2_3, Q9C0E4) | pKd (PTPN13_1, Q12923) | pKd (LAP2, Q96RT1) | pKd (DLG4_1, P78352) | pKd (PARD3_3, Q8TEW0) | pKd (DLG2_3, Q15700) | pKd (RHPN1, Q8TCX5) | pKd (PDZD2_2, O15018) | pKd (MAST2, Q6P0Q8) | pKd (NHERF4_1, Q86UT5-2) | pKd (TIAM2, Q8IVF5) | pKd (MPDZ_12, O75970) | Binder | also measured
below the threshold | below the threshold | below the threshold | below the threshold | below the threshold | below the threshold | below the threshold | below the threshold | below the threshold | below the threshold | below the threshold | below the threshold | below the threshold | below the threshold | below the threshold | 3.55 | 3.83 | 3.66 | below the threshold | 3.6 | QQGLLPHSSC [TYRO3, Q06418] | pKd (GRIP1_2, Q9Y3R0): below the threshold; pKd (DLG4_3, P78352): below the threshold; pKd (SNX27, Q96L92): below the threshold; pKd (RAPGEF6, Q8TEU7): below the threshold; pKd (DLG1_1, Q12959): below the threshold; pKd (LNX1_2, Q8TBB1): below the threshold; pKd (FRMPD2_1, Q68DX3): below the threshold; pKd (NOS1, P29475): below the threshold
below the threshold | below the threshold | below the threshold | below the threshold | below the threshold | below the threshold | below the threshold | below the threshold | below the threshold | 3.59 | below the threshold | below the threshold | below the threshold | below the threshold | below the threshold | 3.59 | 4.21 | below the threshold | below the threshold | below the threshold | KSRPENGTVC [TMEM178B, H3BS89] | pKd (GRIP1_2, Q9Y3R0): below the threshold; pKd (DLG4_3, P78352): 3.5; pKd (SNX27, Q96L92): 3.58; pKd (RAPGEF6, Q8TEU7): below the threshold; pKd (DLG1_1, Q12959): 3.71; pKd (LNX1_2, Q8TBB1): 4.05; pKd (FRMPD2_1, Q68DX3): below the threshold; pKd (NOS1, P29475): 3.47

Second part, the binder before the results:

Binder | pKd (GRIP2_7, Q9C0E4) | pKd (HTRA2, O43464) | pKd (FRMPD3, Q5JV73) | pKd (Inadl_1, Q8NI35) | pKd (MAGI2_2, Q86UL8) | pKd (APBA1_1, Q02410) | pKd (MPDZ_5, O75970) | pKd (LNX2_3, Q8N448) | pKd (GRIP2_3, Q9C0E4) | pKd (PTPN13_1, Q12923) | pKd (LAP2, Q96RT1) | pKd (DLG4_1, P78352) | pKd (PARD3_3, Q8TEW0) | pKd (DLG2_3, Q15700) | pKd (RHPN1, Q8TCX5) | pKd (PDZD2_2, O15018) | pKd (MAST2, Q6P0Q8) | pKd (NHERF4_1, Q86UT5-2) | pKd (TIAM2, Q8IVF5) | pKd (MPDZ_12, O75970) | also measured
PEKVSNTTVV [IGSF5, Q9NSI5] | below the threshold | below the threshold | below the threshold | below the threshold | 4.13 | below the threshold | below the threshold | below the threshold | below the threshold | below the threshold | below the threshold | 4.15 | below the threshold | 3.83 | 3.67 | 4.06 | 4.99 | below the threshold | 4.04 | below the threshold | pKd (GRIP1_2, Q9Y3R0): below the threshold; pKd (DLG4_3, P78352): below the threshold; pKd (SNX27, Q96L92): 4.51; pKd (RAPGEF6, Q8TEU7): below the threshold; pKd (DLG1_1, Q12959): 4.25; pKd (LNX1_2, Q8TBB1): 3.73; pKd (FRMPD2_1, Q68DX3): below the threshold; pKd (NOS1, P29475): 3.64
IQISELETNV [SLC1A7, O00341] | below the threshold | below the threshold | below the threshold | below the threshold | below the threshold | below the threshold | below the threshold | below the threshold | below the threshold | below the threshold | 4.5 | 4.44 | 3.68 | below the threshold | 4.88 | 4.97 | 5.61 | below the threshold | below the threshold | below the threshold | pKd (GRIP1_2, Q9Y3R0): below the threshold; pKd (DLG4_3, P78352): below the threshold; pKd (SNX27, Q96L92): 5.65; pKd (RAPGEF6, Q8TEU7): below the threshold; pKd (DLG1_1, Q12959): 4.34; pKd (LNX1_2, Q8TBB1): below the threshold; pKd (FRMPD2_1, Q68DX3): below the threshold; pKd (NOS1, P29475): below the threshold
EAVTVESTSL [SLC22A11, Q9NSA0] | below the threshold | below the threshold | below the threshold | below the threshold | below the threshold | below the threshold | below the threshold | below the threshold | below the threshold | below the threshold | below the threshold | 3.65 | below the threshold | below the threshold | 4.86 | 4.4 | 5.9 | 4.55 | below the threshold | below the threshold | pKd (GRIP1_2, Q9Y3R0): below the threshold; pKd (DLG4_3, P78352): below the threshold; pKd (SNX27, Q96L92): 5.41; pKd (RAPGEF6, Q8TEU7): below the threshold; pKd (DLG1_1, Q12959): below the threshold; pKd (LNX1_2, Q8TBB1): below the threshold; pKd (FRMPD2_1, Q68DX3): below the threshold; pKd (NOS1, P29475): 3.5
